The source of these data is patent US20240003880A1 (published 2024).

This assay concerns the target SARS-CoV-2 nucleocapsid phosphoprotein (SARS-CoV-2, UniProt P0DTC9 1-419). In words: SPR.

B1: antibody 9-17 (antibody, V domains shown)
VH: QVQLVQSGAEVKKPGSSVKVSCKASGGTFSNYVISWVRQAPGQGLEWMGGIIPIFGTAKYAQKFQGRVAITADESTSTAYMEVSSLRSEDTAVYYCARAGYCSGGSCRRPSDYYGMDVWGQGTTVTVSS
VL: not shown
In turn, B1 displayed a Kd of 0.18 nM. In other words, the sub-nanomolar range.

B2: antibody 9-24 (antibody, V domains shown)
VH: EVQLVESGGGLVQPGGSLRLSCAASGFTFSDSAVHWVRQASGKGLEWVGRIRNRNNNYATAYAASVKGRFTISRDDSENMAYLQMNGLKTEDTAIYYCTDLLAYWGQGTLLTVSS
VL: SYELTQPPSVSVSPGQTARITCSADALPKQYAYWYQQKAGQAPVLVIYKDNERPSGIPERFSGSSSGTTVTLTISGVQAEDEADYYCQSADSSGGYRVFGGGTKLTVL
Consider B2, for which the dissociation constant Kd stood at 2.36 nM.

B3: antibody 9-11 (antibody, V domains shown)
VH: QVQLVQSGAEVKKPGASVKVSCKASGYTFTSYAISWVRQAPGQGLEWMGWISAYTGNTNYAQKLQGRVTMTTDTSTSTAYMELRSLRSDDTAVYYCARNGWDYDTSGTHDYWGQGTLVTVSS
VL: not shown
Molecule B3 returned a dissociation constant Kd of 0.08 nM. This Kd lies about 29-fold lower than the previous one.

B4: antibody 9-15 (antibody, V domains shown)
VH: QVQLVQSGAEVKKPGSSVKVSCKASGGTFSSYAISWVRQAPGQGLEWMGGIIPIFGTANYAQKFQGRVTITAEESTSTAYMELSSLRSEDTAVYYCARDGWAAAGPDTSLLGTFDIWGQGTMVTVSS
VL: QSALTQPPSVSGSPGQSVTISCTGTSSDVGSYNRVSWYQQPPGTAPKLIIYEVSNRPSGVPDRFSGSKSGNTASLTISGLQAEDEADYYCSSYTSSSTYVVFGGGTKLTVL
Molecule B4 showed a Kd of 0.1 nM. The Kd values of the last two molecules are within 1.5-fold of each other.

What is called Kd is the equilibrium constant for the complex coming apart. The low end stands for tighter binding, the high end for weaker binding.
